Results from IntAct's records for PubMed 29892012.

What was measured:
[1] = target: ctsr1_human CATSPER1 (UniProt Q8NEC5)
[2] = target: creb3_human CREB3 (UniProt O43889)
[3] = target: kr101_human KRTAP10-1 (UniProt P60331)
[4] = target: kr103_human KRTAP10-3 (UniProt P60369)
[5] = target: kr105_human KRTAP10-5 (UniProt P60370)
[6] = target: mdfi_human MDFI (UniProt Q99750)
[7] = target: stat3_human STAT3 (UniProt P40763)
[8] = target: efs_human EFS (UniProt O43281)
[9] = target: leg9b_human LGALS9B (UniProt Q3B8N2)
[10] = target: pdli7_human PDLIM7 (UniProt Q9NR12)
[11] = target: erep1_human ENTREP1 (UniProt Q15884)
[12] = target: hnrl1_human HNRNPUL1 (UniProt Q9BUJ2)
[13] = target: fxl18_human FBXL18 (UniProt Q96ME1)
[14] = target: kr108_human KRTAP10-8 (UniProt P60410)
[15] = target: dpyl2_human DPYSL2 (UniProt Q16555)
[16] = target: aakb2_human PRKAB2 (UniProt O43741)
[17] = target: zbt24_human ZBTB24 (UniProt O43167)
[18] = target: hnrll_human HNRNPLL (UniProt Q8WVV9)
[19] = target: ZNF385C (UniProt Q66K41)
[20] = target: tyk2_human TYK2 (UniProt P29597)
[21] = target: ytdc1_human YTHDC1 (UniProt Q96MU7)
[22] = target: rbm42_human RBM42 (UniProt Q9BTD8)
[23] = target: U2AF1 (UniProt Q01081)
[24] = target: abi2_human ABI2 (UniProt Q9NYB9)
[25] = target: rbm7_human RBM7 (UniProt Q9Y580)
[26] = target: grap2_human GRAP2 (UniProt O75791)
[27] = target: prr3_human PRR3 (UniProt P79522)
[28] = target: qki_human QKI (UniProt Q96PU8)
[29] = target: cirbp_human CIRBP (UniProt Q14011)
[30] = target: pex39_human PEX39 (UniProt Q5I0X4)
[31] = target: ikzf3_human IKZF3 (UniProt Q9UKT9)
[32] = target: neca2_human NECAB2 (UniProt Q7Z6G3)
[33] = target: inca1_human INCA1 (UniProt Q0VD86)
[34] = target: taso2_human TASOR2 (UniProt Q5VWN6)
[35] = target: itf2_human TCF4 (UniProt P15884)
[36] = target: tri23_human TRIM23 (UniProt P36406)
[37] = target: zn446_human ZNF446 (UniProt Q9NWS9)
[38] = target: T1, dest_human DSTN (UniProt P60981)
T1 sequence: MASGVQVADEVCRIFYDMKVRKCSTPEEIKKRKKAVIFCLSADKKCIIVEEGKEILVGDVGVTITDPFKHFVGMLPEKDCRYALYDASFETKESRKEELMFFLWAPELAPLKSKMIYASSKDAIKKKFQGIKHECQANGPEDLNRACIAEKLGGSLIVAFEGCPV

[39] = target: ntaq1_human NTAQ1 (UniProt Q96HA8)
[40] = target: itf2_human TCF4 (UniProt P15884); remark: listed apart in the source
[41] = target: inca1_human INCA1 (UniProt Q0VD86); remark: listed apart in the source
[42] = target: cep76_human CEP76 (UniProt Q8TAP6)
[43] = target: T2, dpyl5_human DPYSL5 (UniProt Q9BPU6)
T2 sequence: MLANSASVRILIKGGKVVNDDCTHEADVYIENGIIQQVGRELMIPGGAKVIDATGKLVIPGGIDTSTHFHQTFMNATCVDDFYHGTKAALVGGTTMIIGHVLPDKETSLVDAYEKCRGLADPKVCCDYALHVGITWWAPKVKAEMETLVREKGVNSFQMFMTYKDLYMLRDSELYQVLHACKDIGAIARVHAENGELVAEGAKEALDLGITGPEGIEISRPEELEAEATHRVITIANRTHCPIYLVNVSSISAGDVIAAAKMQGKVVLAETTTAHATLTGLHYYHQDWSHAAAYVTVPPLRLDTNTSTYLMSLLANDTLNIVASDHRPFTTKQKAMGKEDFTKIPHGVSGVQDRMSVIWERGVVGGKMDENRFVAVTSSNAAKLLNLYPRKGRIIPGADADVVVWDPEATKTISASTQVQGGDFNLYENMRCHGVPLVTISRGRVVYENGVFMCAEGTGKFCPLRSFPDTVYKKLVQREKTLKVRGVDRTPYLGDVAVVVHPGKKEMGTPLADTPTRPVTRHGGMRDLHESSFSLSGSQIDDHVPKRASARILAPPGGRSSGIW

[44] = target: gors2_human GORASP2 (UniProt Q9H8Y8)
[45] = target: dpyl3_human DPYSL3 (UniProt Q14195)
[46] = target: kr108_human KRTAP10-8 (UniProt P60410); remark: listed apart in the source
[47] = target: aagab_human AAGAB (UniProt Q6PD74)

Chain of Zinc finger protein 559 (Homo sapiens), Q9BR84 K62I (Q9BR84 whole entry K62I): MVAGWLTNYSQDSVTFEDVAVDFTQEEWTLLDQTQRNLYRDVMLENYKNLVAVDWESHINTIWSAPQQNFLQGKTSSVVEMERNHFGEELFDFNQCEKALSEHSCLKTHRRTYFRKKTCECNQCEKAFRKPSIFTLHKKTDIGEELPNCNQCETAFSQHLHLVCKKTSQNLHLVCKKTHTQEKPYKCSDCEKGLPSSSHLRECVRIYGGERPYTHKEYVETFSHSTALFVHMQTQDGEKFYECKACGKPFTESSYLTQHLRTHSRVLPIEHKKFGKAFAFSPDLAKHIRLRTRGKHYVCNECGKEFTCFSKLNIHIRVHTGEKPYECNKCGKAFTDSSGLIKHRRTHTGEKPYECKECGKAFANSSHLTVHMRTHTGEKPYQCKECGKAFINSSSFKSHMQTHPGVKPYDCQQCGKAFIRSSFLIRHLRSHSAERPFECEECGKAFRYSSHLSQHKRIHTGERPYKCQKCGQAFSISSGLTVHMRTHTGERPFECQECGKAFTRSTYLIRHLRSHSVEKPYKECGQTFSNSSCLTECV
Chain of Serine/threonine-protein kinase Nek6 (Homo sapiens), Q9HC98 R195C (Q9HC98 whole entry R195C): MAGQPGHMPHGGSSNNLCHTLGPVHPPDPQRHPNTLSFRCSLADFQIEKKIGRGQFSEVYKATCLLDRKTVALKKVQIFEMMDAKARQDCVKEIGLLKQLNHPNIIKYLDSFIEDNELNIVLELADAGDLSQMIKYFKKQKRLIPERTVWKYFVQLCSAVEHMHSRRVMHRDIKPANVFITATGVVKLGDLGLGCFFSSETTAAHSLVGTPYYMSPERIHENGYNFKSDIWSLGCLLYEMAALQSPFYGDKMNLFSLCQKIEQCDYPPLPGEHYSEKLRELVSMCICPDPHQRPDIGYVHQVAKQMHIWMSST
Chain of inca1_human INCA1 (Q0VD86 whole entry): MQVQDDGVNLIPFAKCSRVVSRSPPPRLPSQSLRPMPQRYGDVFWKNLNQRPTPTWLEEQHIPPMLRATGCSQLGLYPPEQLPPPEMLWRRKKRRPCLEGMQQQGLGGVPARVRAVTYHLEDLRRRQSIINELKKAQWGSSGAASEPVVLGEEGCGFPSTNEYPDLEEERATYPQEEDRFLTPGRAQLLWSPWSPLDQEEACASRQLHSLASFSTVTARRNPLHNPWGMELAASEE
Chain of Tyrosine-protein kinase Blk (Homo sapiens), P51451 I338T (P51451 whole entry I338T): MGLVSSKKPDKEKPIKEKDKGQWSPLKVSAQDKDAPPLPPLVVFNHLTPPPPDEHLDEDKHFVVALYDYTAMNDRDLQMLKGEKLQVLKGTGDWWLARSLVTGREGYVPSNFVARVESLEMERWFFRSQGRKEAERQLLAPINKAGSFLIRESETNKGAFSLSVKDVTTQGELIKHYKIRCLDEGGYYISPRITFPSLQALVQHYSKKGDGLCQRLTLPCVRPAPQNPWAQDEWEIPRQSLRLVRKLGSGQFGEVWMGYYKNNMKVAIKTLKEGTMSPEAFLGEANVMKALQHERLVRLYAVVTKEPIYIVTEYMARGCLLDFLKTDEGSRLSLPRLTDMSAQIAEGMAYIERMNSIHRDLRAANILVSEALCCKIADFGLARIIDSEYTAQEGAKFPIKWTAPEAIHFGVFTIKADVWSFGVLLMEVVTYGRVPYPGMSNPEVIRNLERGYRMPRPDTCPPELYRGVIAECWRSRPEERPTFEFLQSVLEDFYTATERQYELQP
Chain of Apolipoprotein A-II (Homo sapiens), P02652 Q71R (P02652 whole entry Q71R): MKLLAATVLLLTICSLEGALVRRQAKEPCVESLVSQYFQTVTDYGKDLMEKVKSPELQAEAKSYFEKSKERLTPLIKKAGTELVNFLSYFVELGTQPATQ
Chain of itf2_human TCF4 (P15884 whole entry): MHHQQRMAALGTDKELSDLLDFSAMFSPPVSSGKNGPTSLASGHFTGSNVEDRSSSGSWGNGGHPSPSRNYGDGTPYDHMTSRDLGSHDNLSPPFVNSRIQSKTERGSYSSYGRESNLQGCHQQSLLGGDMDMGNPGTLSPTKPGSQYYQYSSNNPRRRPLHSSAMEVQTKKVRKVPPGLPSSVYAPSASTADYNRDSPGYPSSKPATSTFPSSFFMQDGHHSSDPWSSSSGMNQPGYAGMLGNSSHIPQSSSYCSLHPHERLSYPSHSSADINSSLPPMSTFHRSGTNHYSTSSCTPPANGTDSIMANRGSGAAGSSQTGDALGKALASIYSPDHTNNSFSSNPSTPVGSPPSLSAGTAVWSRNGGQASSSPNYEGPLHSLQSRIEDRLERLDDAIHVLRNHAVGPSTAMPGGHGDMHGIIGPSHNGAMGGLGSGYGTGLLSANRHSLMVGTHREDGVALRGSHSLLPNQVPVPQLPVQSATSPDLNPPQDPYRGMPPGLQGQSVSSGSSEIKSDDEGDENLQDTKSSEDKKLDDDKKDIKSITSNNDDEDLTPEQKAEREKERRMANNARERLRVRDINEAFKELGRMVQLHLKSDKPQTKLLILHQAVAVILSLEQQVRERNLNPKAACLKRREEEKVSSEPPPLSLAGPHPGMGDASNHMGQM
Chain of kr108_human KRTAP10-8 (P60410 whole entry): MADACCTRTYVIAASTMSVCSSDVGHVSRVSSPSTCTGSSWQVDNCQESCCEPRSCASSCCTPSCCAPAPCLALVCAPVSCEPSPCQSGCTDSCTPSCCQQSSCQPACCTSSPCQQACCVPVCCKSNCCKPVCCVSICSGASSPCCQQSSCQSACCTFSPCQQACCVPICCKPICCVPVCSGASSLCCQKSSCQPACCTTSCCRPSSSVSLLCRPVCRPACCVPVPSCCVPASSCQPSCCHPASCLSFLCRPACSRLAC
Chain of ntaq1_human NTAQ1 (Q96HA8 whole entry): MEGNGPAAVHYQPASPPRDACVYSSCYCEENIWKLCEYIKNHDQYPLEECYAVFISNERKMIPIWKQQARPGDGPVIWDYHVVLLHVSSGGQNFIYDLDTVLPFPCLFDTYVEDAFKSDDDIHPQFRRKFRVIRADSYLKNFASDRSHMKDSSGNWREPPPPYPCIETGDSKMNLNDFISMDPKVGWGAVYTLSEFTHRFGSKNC
Chain of pex39_human PEX39 (Q5I0X4 whole entry): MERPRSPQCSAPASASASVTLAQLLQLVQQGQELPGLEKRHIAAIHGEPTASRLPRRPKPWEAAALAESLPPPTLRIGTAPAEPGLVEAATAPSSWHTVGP
Chain of tri23_human TRIM23 (P36406 whole entry): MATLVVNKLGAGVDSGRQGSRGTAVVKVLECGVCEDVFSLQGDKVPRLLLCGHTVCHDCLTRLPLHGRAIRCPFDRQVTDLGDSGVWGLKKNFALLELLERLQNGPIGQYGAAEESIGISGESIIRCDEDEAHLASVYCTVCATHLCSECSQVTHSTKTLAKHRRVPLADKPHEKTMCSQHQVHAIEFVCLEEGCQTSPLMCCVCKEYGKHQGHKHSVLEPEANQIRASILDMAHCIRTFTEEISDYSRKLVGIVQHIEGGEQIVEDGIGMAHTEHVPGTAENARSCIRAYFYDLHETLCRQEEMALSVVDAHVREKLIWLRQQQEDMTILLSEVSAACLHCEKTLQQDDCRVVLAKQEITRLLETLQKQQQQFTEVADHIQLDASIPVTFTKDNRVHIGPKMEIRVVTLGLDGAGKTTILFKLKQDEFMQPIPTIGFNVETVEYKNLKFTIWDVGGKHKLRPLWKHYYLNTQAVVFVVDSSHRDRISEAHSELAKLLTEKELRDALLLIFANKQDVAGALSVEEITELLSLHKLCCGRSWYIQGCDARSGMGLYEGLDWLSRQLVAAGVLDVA
Chain of zn446_human ZNF446 (Q9NWS9 whole entry): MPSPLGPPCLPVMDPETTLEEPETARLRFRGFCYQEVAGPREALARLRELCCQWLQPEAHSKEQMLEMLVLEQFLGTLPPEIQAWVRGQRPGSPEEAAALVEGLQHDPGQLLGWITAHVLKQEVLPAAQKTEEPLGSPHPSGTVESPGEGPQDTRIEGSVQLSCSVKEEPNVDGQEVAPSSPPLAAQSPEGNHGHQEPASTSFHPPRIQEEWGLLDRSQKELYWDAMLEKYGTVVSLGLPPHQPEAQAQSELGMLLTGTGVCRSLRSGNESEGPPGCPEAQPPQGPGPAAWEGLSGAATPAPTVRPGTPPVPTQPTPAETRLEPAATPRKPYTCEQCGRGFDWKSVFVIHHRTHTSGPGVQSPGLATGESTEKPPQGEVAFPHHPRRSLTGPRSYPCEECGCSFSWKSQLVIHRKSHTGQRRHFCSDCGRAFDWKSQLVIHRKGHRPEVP
Chain of qki_human QKI (Q96PU8 whole entry): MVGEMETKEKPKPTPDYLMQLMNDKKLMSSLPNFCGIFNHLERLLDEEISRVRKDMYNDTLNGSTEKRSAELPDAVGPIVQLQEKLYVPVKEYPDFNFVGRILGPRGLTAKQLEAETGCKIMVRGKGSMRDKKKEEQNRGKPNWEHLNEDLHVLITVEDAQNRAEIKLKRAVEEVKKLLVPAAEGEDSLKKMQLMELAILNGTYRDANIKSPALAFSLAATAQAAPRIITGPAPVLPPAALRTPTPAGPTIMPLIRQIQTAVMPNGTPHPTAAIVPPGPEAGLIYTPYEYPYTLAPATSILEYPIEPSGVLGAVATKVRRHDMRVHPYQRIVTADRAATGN
Chain of aakb2_human PRKAB2 (O43741 whole entry): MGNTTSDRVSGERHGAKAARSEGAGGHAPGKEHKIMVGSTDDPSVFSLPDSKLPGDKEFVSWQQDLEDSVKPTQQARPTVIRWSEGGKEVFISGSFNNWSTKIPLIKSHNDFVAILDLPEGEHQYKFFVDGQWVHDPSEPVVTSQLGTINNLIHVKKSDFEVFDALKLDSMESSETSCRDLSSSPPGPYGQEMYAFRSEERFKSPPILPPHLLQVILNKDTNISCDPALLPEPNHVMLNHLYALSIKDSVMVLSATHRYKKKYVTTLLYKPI
Chain of rbm7_human RBM7 (Q9Y580 whole entry): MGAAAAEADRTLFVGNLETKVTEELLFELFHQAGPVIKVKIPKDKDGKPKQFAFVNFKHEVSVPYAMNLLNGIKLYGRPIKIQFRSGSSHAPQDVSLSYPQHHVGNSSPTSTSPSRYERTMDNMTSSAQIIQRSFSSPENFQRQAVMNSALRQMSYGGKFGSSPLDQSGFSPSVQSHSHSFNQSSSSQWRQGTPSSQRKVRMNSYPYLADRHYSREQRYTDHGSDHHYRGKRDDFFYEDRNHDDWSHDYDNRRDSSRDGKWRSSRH

## Apolipoprotein A-II (Homo sapiens), P02652 Q71R
[1]
  effect of a mutation on the interaction: with no effect
[2]
  effect of a mutation on the interaction: with no effect

## Zinc finger protein 559 (Homo sapiens), Q9BR84 K62I
[3]
  effect of a mutation on the interaction: with no effect
[4]
  effect of a mutation on the interaction: with no effect
[5]
  effect of a mutation on the interaction: with no effect
[6]
  effect of a mutation on the interaction: with no effect

## Tyrosine-protein kinase Blk (Homo sapiens), P51451 I338T
[7]
  effect of a mutation on the interaction: disrupting interaction strength
[8]
  effect of a mutation on the interaction: with no effect

## NEDD4-like E3 ubiquitin-protein ligase WWP2 (Homo sapiens), O00308 R178W
[9]
  effect of a mutation on the interaction: with no effect
[10]
  effect of a mutation on the interaction: with no effect
[11]
  effect of a mutation on the interaction: with no effect
[12]
  effect of a mutation on the interaction: with no effect
[13]
  effect of a mutation on the interaction: with no effect

## Solute carrier family 23 member 1 (Homo sapiens), Q9UHI7 L461M
[14]
  effect of a mutation on the interaction: with no effect

## Dihydropyrimidinase-related protein 3 (Homo sapiens), Q14195 V25I
[15]
  effect of a mutation on the interaction: with no effect

## Krueppel-like factor 15 (Homo sapiens), Q9UIH9 G206R
[16]
  effect of a mutation on the interaction: with no effect
[17]
  effect of a mutation on the interaction: with no effect

## Heterogeneous nuclear ribonucleoprotein K (Homo sapiens), P61978 R377H
[18]
  effect of a mutation on the interaction: with no effect
[19]
  effect of a mutation on the interaction: with no effect
[20]
  effect of a mutation on the interaction: with no effect
[21]
  effect of a mutation on the interaction: with no effect
[22]
  effect of a mutation on the interaction: with no effect
[23]
  effect of a mutation on the interaction: with no effect
[24]
  effect of a mutation on the interaction: with no effect
[25]
  effect of a mutation on the interaction: with no effect
[26]
  effect of a mutation on the interaction: with no effect
[27]
  effect of a mutation on the interaction: with no effect
[28]
  effect of a mutation on the interaction: with no effect
[29]
  effect of a mutation on the interaction: with no effect
[30]
  effect of a mutation on the interaction: with no effect

## Serine/threonine-protein kinase Nek6 (Homo sapiens), Q9HC98 R195C
[31]
  effect of a mutation on the interaction: disrupting interaction strength
[32]
  effect of a mutation on the interaction: disrupting interaction strength
[33]
  effect of a mutation on the interaction: with no effect
[34]
  effect of a mutation on the interaction: disrupting interaction strength
[35]
  effect of a mutation on the interaction: with no effect
[36]
  effect of a mutation on the interaction: disrupting interaction strength

## Zinc finger and SCAN domain-containing protein 30 (Homo sapiens), Q86W11 G186S
[37]
  effect of a mutation on the interaction: with no effect

## Actin, cytoplasmic 1 (Homo sapiens) (from UniProt P60709) R372C
[38]
  effect of a mutation on the interaction: with no effect
[39]
  effect of a mutation on the interaction: with no effect

## Calcium-binding protein 5 (Homo sapiens), Q9NP86 T59M
[40]
  effect of a mutation on the interaction: with no effect
[41]
  effect of a mutation on the interaction: with no effect
[42]
  effect of a mutation on the interaction: with no effect

## Dihydropyrimidinase-related protein 2 (Homo sapiens) (from UniProt Q16555) R496C
[43]
  effect of a mutation on the interaction: with no effect
[44]
  effect of a mutation on the interaction: disrupting interaction strength
[45]
  effect of a mutation on the interaction: with no effect

## Cyclin-J-like protein (Homo sapiens), Q8IV13 W188R
[46]
  effect of a mutation on the interaction: with no effect

## AP-2 complex subunit sigma (Homo sapiens), P53680 G64D
[47]
  effect of a mutation on the interaction: with no effect
